Experiment [1] addresses T1, monovalent hVISTA-ECD (amino acids 32-193 of SEQ ID NO: 1 with a 7xHis tail) (human, UniProt Q9H7M9 33-193).
T1 construct: analyte of the SPR assays; also called huVISTA-His; human VISTA-ECD
Briefly: SPR, pH 7.4 over pH 6.0. As for the experimental part: (§1) Further binding kinetic experiments were performed at various pHs on VISTA antibodies described herein by SPR as generally described in Example 9 above. Antibodies were normalized to 50 nM concentration in PBST pH 7.4 and captured on a Protein A CM5 chip (ID 4931) by injecting for 45 seconds at a 5 µL/min flow rate. An 8-point human VISTA titration ([…]) was prepared in PBST at pH 7.4, 6.9, 6.45, and 6.0. Titrations were injected over the captured antibodies for 180 seconds at 30 µL/min. Sensorgrams were fit to a 1:1 binding model in T200 evaluation software and the kinetic constants were reported.
Each table reports the data at one of the four tested pHs (7.4, 6.9, 6.45, and 6.0, respectively). The 8-point hVISTA titration used in these assays was chosen to provide increased confidence in kinetic values reported at neutral pH conditions. A relatively stringent cutoff for non-binding was applied in this assay. Certain progeny of P1-061029 antibody (P1-068757, ‘759, ‘765, ‘771, and ‘775) show no binding to hVISTA at micromolar concentrations at pH 7.4, while ‘761 and ‘767 show no binding to hVISTA at 100 nM at pH 7.4 but do show binding to hVISTA at micromolar concentrations.

Experiment [2] addresses T1, monovalent hVISTA-ECD (amino acids …). Briefly: SPR, Ab on Protein A, hVISTA 100-7.8 nM, pH 7.4. As for the experimental part: as §1
For experiment [3] the target is unchanged. In words: SPR 37C, Ab on Protein A, hVISTA-ECD 50-5 nM, pH 7.4, average. The method, then: Binding of several preparations of each of the ‘029 progeny clones and of the parent ‘029 antibodies, formatted as IgG1.3 antibodies, to human VISTA at pH 6.0 and 7.4 was measured by Surface plasmon resonance (SPR). SPR analysis was performed to measure koff and KD binding affinity measurements for VISTA Abs at acidic and neutral pHs using a Biacore® T100 instrument (GE Healthcare). […] Antibodies were diluted to 25 nM in PBST pH 7.4, and were captured across active biosensor flow cells at 5 ul/min for 60 seconds. A concentration series of 50 - 5 nM monovalent hVISTA-ECD (SEQ ID NO: 325) was prepared in pH 7.4 and 6.0 running buffers, and was injected over the captured antibodies at 40 ul/min to measure association and dissociation. Two 15 second injections of 10 mM glycine pH 1.5 were used to regenerate the Protein A capture surface between assay cycles. Rate constants ka (kₒₙ) and kd (koff) were derived from reference flow cell and 0 nM blank-subtracted sensorgrams, and were fit to a 1:1 binding model in Biacore® T200 Evaluation Software v.2.0. The affinity constant, KD was calculated as the ratio of rate constants koff/kₒₙ for each VISTA antibody.

Experiment [4] has the same target. Briefly: SPR 37C, Ab on Protein A, hVISTA-ECD 50-0.2 nM, pH 6.0. As for the experimental part:
(§2) Surface plasmon resonance (SPR) analysis was performed to measure the association rates (defined as ka or kₒₙ, 1/Ms units), dissociation rates (defined as kd or koff, s⁻¹ units) and affinity constants (defined as KD, M units) for VISTA Abs at acidic and physiological pHs using a Biacore® T200 instrument (GE Healthcare). […] Antibodies were diluted to 20 nM in PBST pH 7.4, and were captured across active biosensor flow cells at 5 ul/min for 50 seconds. A concentration series of 50 - 0.2 nM monovalent hVISTA-ECD (SEQ ID NO: 325) was prepared in pH 7.4 and 6.0 running buffers, and was injected over the captured antibodies at 40 ul/min to measure association and dissociation. Two 15 second injections of 10 mM glycine pH 1.5 were used to regenerate the Protein A capture surface between assay cycles. Rate constants kₐ (kₒₙ) and kd (kₒff) were derived from reference flow cell and 0 nM blank-subtracted sensorgrams, and were fit to a 1:1 binding model in Biacore® T200 Evaluation Software v.2.0.

The target is the same in experiment [5]. In words: SPR 37C, Ab on Protein A, hVISTA-ECD 50-0.2 nM, column headed pH 7 (running buffer pH 7.4 in the text). The method, then:
as §2

The target is the same in experiment [6]. Briefly: SPR 37C, pH 7.4 *, value referenced from the 1600 nM assay (same as the 4th table r7).
Experiment [7] shares this target. Briefly: SPR 37C, pH 7.4 * over pH 6.0.

T1 sequence (Q9H7M9 other isoform, or with tags, fused parts or gaps limits assumed): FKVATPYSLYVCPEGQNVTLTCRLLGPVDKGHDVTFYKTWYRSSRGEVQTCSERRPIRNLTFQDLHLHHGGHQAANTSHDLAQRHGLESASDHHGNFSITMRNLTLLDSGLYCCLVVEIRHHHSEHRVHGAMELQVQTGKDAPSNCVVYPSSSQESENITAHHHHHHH

B1: P1-061029.IgG1.3 (antibody)
heavy: EVQLVESGGGLVQPGKSLRLSCAASGFTLDDYAMHWVRQAPGKGLEWVSGINWNSANIGYADSVKGRFTISRDNAKNSLYLQMNSLRTEDTALYYCAKVPGYSGGWIDAFDVWGQGTMVTVSSASTKGPSVFPLAPSSKSTSGGTAALGCLVKDYFPEPVTVSWNSGALTSGVHTFPAVLQSSGLYSLSSVVTVPSSSLGTQTYICNVNHKPSNTKVDKRVEPKSCDKTHTCPPCPAPEAEGAPSVFLFPPKPKDTLMISRTPEVTCVVVDVSHEDPEVKFNWYVDGVEVHNAKTKPREEQYNSTYRVVSVLTVLHQDWLNGKEYKCKVSNKALPAPIEKTISKAKGQPREPQVYTLPPSREEMTKNQVSLTCLVKGFYPSDIAVEWESNGQPENNYKTTPPVLDSDGSFFLYSKLTVDKSRWQQGNVFSCSVMHEALHNHYTQKSLSLSPG
light: not shown
notes: IgG1.3; also called P1-061029 (parent); P1-061029-18
For the molecule B1, in experiment [1], the “7.4 KD/ 6.0 KD” value is 4.5 and the “7.4 kd/ 6.0 kd” value was 1.1. For the same molecule, in experiment [2], binding was put at a Kd of 13 nM, the koff is 0.00603 s⁻¹ and the kon came to 463000 M⁻¹ s⁻¹. In experiment [3], this molecule showed a Kd of 19 nM, a koff of 0.0056 s⁻¹ and a kon of 290000 M⁻¹ s⁻¹. This molecule also gave a koff in experiment [4] of 0.0048 s⁻¹. In addition, the koff in experiment [5] came to 0.0091 s⁻¹.

B2: P1-068761.IgG1.3 (antibody)
heavy: EVQLVESGGGLVQPGKSLRLSCAASGFTLEDEAMHWVRQAPGKGLEWVSGINWNSEEIGYADSVKGRFTISRDNAKNSLYLQMNSLRTEDTALYYCAKVPGYSHGWIDAEDVWGQGTMVTVSSASTKGPSVFPLAPSSKSTSGGTAALGCLVKDYFPEPVTVSWNSGALTSGVHTFPAVLQSSGLYSLSSVVTVPSSSLGTQTYICNVNHKPSNTKVDKRVEPKSCDKTHTCPPCPAPEAEGAPSVFLFPPKPKDTLMISRTPEVTCVVVDVSHEDPEVKFNWYVDGVEVHNAKTKPREEQYNSTYRVVSVLTVLHQDWLNGKEYKCKVSNKALPAPIEKTISKAKGQPREPQVYTLPPSREEMTKNQVSLTCLVKGFYPSDIAVEWESNGQPENNYKTTPPVLDSDGSFFLYSKLTVDKSRWQQGNVFSCSVMHEALHNHYTQKSLSLSPG
light: not shown
notes: IgG1.3; also called P1-068761-20; P1-068761 hIgG1.3f
In experiment [6], B2 registered a Kd of 11000 nM, an off-rate constant (koff) of 0.042 s⁻¹ and a kon of 3800 M⁻¹ s⁻¹. For the same molecule, in experiment [7], the “KD ratio to pH 6.0” value is ~10000 and the “koff ratio to pH 6.0” value is ~63.6.

Source of the values: patent US20230192860A1 (Bristol-Myers Squibb, published 2023).
